Reference: article PMC2807035

How the values were obtained:
[1] = molecular target: triple-helical collagen peptide Ac-GPOGPOGPOGPRGQOGVNleGFOGPOGPOG-NH2; assay: crystal structure; complex formed at molar peptide:protein ratio ~1.5:1; hanging drop vapor diffusion at room temperature, 0.1 M PCB pH 7.0, 25% PEG1500; 1.6 Å, molecular replacement
[2] = molecular target: triple-helical collagen peptide GPC-(GPP)5-GPRGQOGVNleGFO-(GPP)5-GPC-NH2; assay: ELISA; solid-phase binding assay: DS2-Fc added to 96-well plates coated with triple-helical collagen peptides at 10 μg/ml
[3] = molecular target: triple-helical collagen peptide Ac-GPOGPOGPOGPRGQOGVNleGFOGPOGPOG-NH2; assay: SEC; analytical size exclusion chromatography, 24 ml Superdex 75, 20 mM MES, 100 mM NaCl pH 6.5; 16 nmol DS domain in PBS alone or mixed with varying amounts of collagen peptide (two-fold molar excess for the complex), incubated 30 min in 0.5 ml

triple-helical collagen peptide Ac-GPOGPOGPOGPRGQOGVNleGFOGPOGPOG-NH2
stoichiometry N [1]: 3

DS2-Fc (Fc-tagged DS domain of DDR2) (Fc fusion)
fold increase of binding against the methionine peptide [2]: 10 fold

B1: DS domain of human DDR2 (His-tagged, residues 26-190) (domain or fragment)
chain: NPAICRYPLGMSGGQIPDEDITASSQWSESTAAKYGRLDSEEGDGAWCPEIPVEPDDLKEFLQIDLHTLHFITLVGTQGRHAGGHGIEFAPMYKINYSRDGTRWISWRNRHGKQVLDGNSNPYDIFLKDLEPPIVARFVRFIPVTDHSMNVCMRVELYGCVWLDG
stoichiometry N [3]: 1
